The data set can be described thus: soluble on expression in E. coli; label from the status in PepcDB or PDB records.
As to “RSVAAPLVKLRKATQNIKEGNLDFVLDVEGTDEFSELCRDFEEMRRRLKESAEEKIAMDKENKELISNISHDLKTPITAVKGYVEGIMDGVADTPEKMDRYVRTIYNKTNEMDHLINELTFYSKIDTNRIPYTFSKLNVEDYFSDCAEEVGLELETRGIQLCYANYVDKDVLVIA”, the “soluble on expression in E. coli” value is given as “not soluble”.

With “MGSDKIHHHHHHMKLETIDYRSPDAAAQFVQSLRDTGFGVLSNHPIQQSLVEAIYKDWYEFFQSGAKEEFRFNPETQDGFFPADVSETAKGHSVKDIKEYYHVYPWGRIPESLRANILAYYDHANQLAAELLSWVEAHSPDEVKALFTEPLPNMIDGSHKTLLRVLHYPPMKGDEEPGAIRAAAHEDINLLTVLPAANEPGLQVKAKDGTWLDVPSDFGNIIINIGDMLQEASGGYFPSTSHRVINPEGMDKTKSRISLPLFLHPRPDVVLSERYTADSYLMERLRELGVI”, the “soluble on expression in E. coli” value is reported as “not soluble”.

Turning to “METYLEIETLIKRIFNSFRHEVEAVLDKRLSGSEYRVLSLISSGLTKTSDLAKTLDVSASHITAITDTLVEEKLITRHRSEVDRRIIELKLTSNAEEFVKEIDKKKKEMIVKRFAVFSEYEQAEFRKLLKKLADGSQSNK”, the “soluble on expression in E. coli” value is “not soluble”.

Take “MSLRYFVFATFKVHKDATNSYFSNGDVVVVNRNRTPKYKDFIVYKVGKIFYISRVIGEPNQKVRVMDDILYLNDVFKDEPYIEKMKNAYSEKKDGQMPFTSDFSVETLTRNKESRVPKGSYLVLNDNRQNKNDSRKFGLIKEKDIRGVITFKVYPLSEFGFTASEGHHHHHH”: the “soluble on expression in E. coli” value is reported as “soluble”.

Turning to “MGSDKIHHHHHHMLLTPDDLKACEVELARRSLADFARMAWPVLEPATPLKWGWALDAICEHLEAVSRGESKRLLMNVPPGSMKSLLTGVIWPAYEWGPMDHAEMRFLGTAHKQDLAVRDNLKCRRLIQSQWYQERWPVVLTSDQNAKTKFENARTGFREAMAFESMTGSRGDRVILDDPHSVDDANSAAKLASGVTTFREALPSRVNNDQSAIVIVMQRLNEADVSAVAIDLGYDHLCIPMRYEPGRSKWVYGSGDPRKEEGELMFPERFPEEQVSELEKTMGSYAVAGQLQQRPAPRGGGIIKTAWFRSYRELPALEWRQIHADTAQKTGEENDYSVFQCWGRTTTGQAVLIDQIRGKWEAPDLLTQARAFWLKHKSIPGPVLRAMKVEDKVSGTGLIQTLRREGVAVIPVQRNKDKISRAYDAAAFIESGNVLLPEWADWLDGFTNEAATFPSGAHDDQLDPMFDAIHDVQFGMTVSAAVTRPIPRSVTAFNKR”, the “soluble on expression in E. coli” value is reported as “not soluble”.

As for “MSLRFIDKLYQANLGKLTAGISPAALGTAYYSWFAQLLQSPGSMLRLAYYPLLHANDYLSNLFKYDKPRDGKDVRFHTENWSYYPWRLWAEQFLQFEDWCLQASSKVPGIPLHVKRTVTFSTRQILDALSPSNFVLTNPDLLQETIRSNGQNLIRGTELAFQDFVEKITGSPPAGVENFIPGKQVAVTEGKVVYSNHLIELIQYTPQTEKVYKEPILILPAWIMKYYILDLLPENSLVNWLVRQGHTVFIVSWRNPTKEDRNIGLDDYYKLGAMDAINAVSNAIPHTKIHLMGYCLGGTLALLTAAAMAHDHDNRLKTLSLLAAQGDFIDAGELLLFITKSEVSFLKSMMWEQGYLDTKQMSGTFQMLRSYDLIWSKMVQDYMHGTQRGMIPLLAWNADATRMPYKMHSEYLEKLFLNNDFAEGRFILDGKPVVGENIRMPAFVVSTEKDHVAPWKSVYKTHLLINSDITFVLTNGGHNAGIVSEPGHEGRYYRIRERKMDSTYLDPTNWLKKAELREGSWWIAWHDWLVNHSSQKQVSAPKLDKNLPNAPGKYVLQKEGHHHHHH”, the “soluble on expression in E. coli” value is listed as “not soluble”.

For the sequence “MSLKYYIGLACTGHENALAIVNPDGEIVFAEATERFLQNKRAVNTPPDDPLRIPRLLKQYCSDCDAIVVAKTWSREAPQKMRTDAAHILKALAGTDARTDRDWVARVAFHAGLGDKLIEPNYRLAGNGIERYCSLQGLEHSVRSYEHHLTHAAYACHTSPFDDAVCAVFDGYGEGVHSSYFHYRNGKVEPIRRARSAKGQYGSLASLGLYYGYTICALLGLDIVNGEEWKVMGLAPYGQLNPAFLDVLRRHIYVDGLDLVMDGNAAGTYRELQAFARRPGQSYESVADIAYTAQHYFSELMLEMLAGLRQLGLSDRLVLTGGCALNSTFNGEVIPRSGFAQLYVPPAPSDDGNAVGAALLAYAEDGGAMSRPAFHSPYLGSAIDDRELAPFLKNGAMLGQVPVTPGELCDYVAQELADGKVIGWIQGSAEFGPRSLGNRSILADPRRASMKERINAIVKFREGFRPFAPSILDEFGDRYFEDYSATPYMEKTLKIREAYREAIPAVCHVDHTGRLQTVRRDWNPRFHALLSAFHARTGTPVLLNTSLNVMGKPIVHSAADAFTVFLSTGLDLLVINDHVFSKREGHHHHHH”, the “soluble on expression in E. coli” value is “soluble”.

As to “MHDASHNSLFKTKWMNDYLVDWLCARPIWNDVHKYRTHHTRHHAKTSTPEDPDLTLVAGFPTTKTSLTRKFLRDLVGITGFKFTVGRILMDAEVLKWTVANDLTWLPRENRQWYDYPKVFLKNSSKAIIANASIFGILWAFGRPELYLLWPLAYLTPFPLFIRIRSMAEHAGTQISNNALTNTRTTKAGWLARAFVAPIRVNYHMEHHLMAAVPFFKLPKMHQMLRERGHVPEPPTYVQVIHMLSSHQTNQHPLNSVEQGELEHHHHHH”, the “soluble on expression in E. coli” value is “soluble”.

As for “MSHINLYSLPTDHKNMIRCRYCEKIYKIDNGSSGFIRHLRCKHPNVLYQMGAISNGKEYNLITKQETLSIDTNNEINLRDDDDFMMMKEFSSNQILVNFLSQLDLPTNDVNRVLGKRHRISPTPTINSSVTPNEEHEPDLKMFNSGDTLQNFLIDIDNHIRQKNQESQEAIGTGEESTSASALDMPSSQKESREPSPNSSMLDETNGGTETGDSSPTPFNPARPFGCVICPCSFPRVKDLTIHVTSVHRTRFRCNTCLAEFVQPQHLEHHYSISHAGTSTGTVVNT”, the “soluble on expression in E. coli” value is reported as “not soluble”.

For the sequence “MAQAKHKQRKRLKSSCKRHPLYVDFSDVGWNDWIVAPPGYHAFYCHGECPFPLADHLNSTNHAIVQTLVNSVNSKIPKACCVPTELSAISMLYLDENEKVVLKNYQDMVVEGCGCR”, the “soluble on expression in E. coli” value was “soluble”.

In the case of “AHHHHHHGSSEVYRLTCIVCPLSCSIEVEIEAGKIKDIKGYTCPRGKEWAIEEIRAPKRVVMSVIPVEGGKLPTVSVKTEKPIPKDKIPELMKMLAKLKLKAPVKVGQVVGEFEGVKIIATREA”, the “soluble on expression in E. coli” value is “soluble”.

Take “MGSDKIHHHHHHMSLTITKLQKKIADQAVLNNITFSLSLGQVVGLVGPNGIGKTTIFRTVTHQYRADGGTIELDEQDLTDHPEQRENLFYLDNQHLFFRKYRLDKIAGDYQLLYATFDQARFMALIEKFGLQGSQRFQSLSKGYQALVMVALALASGAPYVFLDEPFDGLDLLIRERIVNLVVDAVADGKRTFLIASHNLVELDGLSDRVLFVKAGRISQDLTLEDVRQQAIKLQLVFKTKAIPDVIR”: the “soluble on expression in E. coli” value was “not soluble”.

Regarding “RSECMGFFRRLLGLSWISIPKLPKKERKNNHDESENESLGNGYDTGESENLSGYLNNSEYEDGPAGESADDPDDYIPPHKEEGENDSSQSIQMGSMTVELAQEEEKADEALLAEIKTDPRMDLASYKFPSVDLLTQYDLQQPPIDMNEIEENQKRIIATLDSFKIHVTPIKATVGPTVTLYEVAPDSGIKISRIRNLEDDIAMSLKAVGGIRIIAPMPGKGTIGIEVPNRKPQTVSMYSVLTSKKYQESDMDLPVALGKTITNEVFIFDLCKMPHLLIAGATGQGKSVGLNAMITSLLYKKHPAELKFVLVDPKMLEFAVYEAIERHYLAKLPDEDRAIVTDMTKVVPTLNSLCIEMDNRYRMLTEARVRNIKEYNDQIISGKLSRLHGHKFLPYIVLIVDEFADLIMTSGKEVERPITRIAQKARAAGIHMVVATQRPSTDIITGIIKANFPARIAFKVFSMIDSRTILDQPGANQLVGRGDMLFYQGKDTVRLQCAFLDTPECEAVTHHISLQESYTSAYELPEYVPEGEEGGPKAFNPQEKDPLFEEVARMVVNSQQGSTSNIQRKFNIGYNRAGRLMDQLEGAGIVSPQDGSKPRQVLIQDEMSLERLFETLR”, the “soluble on expression in E. coli” value was “not soluble”.

In the case of “MGSDKIHHHHHHMDLTHIHPEFRHILGMSDKDRMAFLDEPRWIGYAQANRLLDNLRSLMEKPVRPRMPNLLIVGDSNNGKTTVIRRFQKLHGEGYVNEDAEPVKPVIVSEAPPSADEKGLYIAILERFWTPYRATDSASKLRYQVVHLMRDCHVRILVIDEFHSLLTGTVTKQREVMNAIKLLCNELAIPIVGVGIREAVRVLHTDPQHASRFDVVTLPPWELNPEFQQLVASFERVLPLKKPSLLHQSETVSLLFAISEGNLGNLHRLLVECAVEAIKTGTEKIDKSIIEGKQWLRPTHGIRELV”, the “soluble on expression in E. coli” value is recorded as “not soluble”.

With “MKTFPLQSLTIIEAQQKQFALVDSICRHFPGSEFLTGGDLGLTPGLNQPRVTQRVEQVLADAFHAQAAALVQGAGTGAIRAGLAALLKPGQRLLVHDAPVYPTTRVIIEQMGLTLITVDFNDLSALKQVVDEQQPDAALVQHTRQQPQDSYVLADVLATLRAAGVPALTDDNYAVMKVARIGCECGANVSTFSCFKLFGPEGVGAVVGDADVINRIRATLYSGGSQIQGAQALEVLRGLVFAPVMHAVQAGVSERLLALLNGGAVPEVKSAVIANAQSKVLIVEFHQPIAARVLEEAQKRGALPYPVGAESKYEIPPLFYRLSGTFRQANPQSEHCAIRINPNRSGEETVLRILRESIASI”, the “soluble on expression in E. coli” value is “soluble”.

For the sequence “MSLAYETFAFVYDEVMDESLYQKWLDFSNRHLPQGTQQILEMACGTGALAVDFAKSGYDVTALDLSEEMLMIASERAFEEEVPVQFVQGNMLDLSEVGQYQAITCFSDSLCYMANRQEVQQVFDEVYQALEEEGTFIFDVHSTYKIDSVFPEYSYHYQTEEFAFLWDSYAGEKEHSIEHFLTFFVKEQETDEHFVRYDELHQERTYSLDNYLRMLESAGFMNVKVYADFTDEAPTETSERWFFVCQRDEGHHHHHH”, the “soluble on expression in E. coli” value is on record as “soluble”.

For the sequence “MTGSVVVAGLGPGAQELITPEVSAALALATDIVGYAPYVARVAERDGLQRHASDNREELDRAGFALRLATEGRHVVIVSSGDPGVFAMAAALFEAIEAGDPSWRELDIRVLPGIS”, the “soluble on expression in E. coli” value was “not soluble”.

Turning to “GVLAPVVPGKALEFPQDFGAHNDFRIEWWYVTGWLETPTGKPLGFQITFFRTATEIDRDNPSHFAPDQLIIAHVALSDPAIGKLQHDQKIARAGFDLAYARTGNTDVKLDDWIFVRETDGRYRTRIEAEDFTLTFILTPSQPLMLQGENGFSRKGPGAPQASYYYSEPHLQVSGIINRQGEDIPVTGTAWLDREWSSEYLDPNAAGWDWISANLDDGSALMAFQIRGKDDSKIWAYAALRDASGHTRLFTPDQVSFHPIRTWRSARTQAVYPVATRVLTGETEWQITPLMDDQELDSRASAGAVYWEGAVTFTRDGQPAGRGYMELTGYVRPLSM”, the “soluble on expression in E. coli” value was “soluble”.

As to “DVQPETCRPSAASGNYFPQYPEYAIETARLRTFEAWPRNLKQKPHQLAEAGFFYTGVGDRVRCFSCGGGLMDWNDNDEPWEQHALWLSQCRFVKLMKGQLYIDTVAAKPVLAEEKEESTSIGGD”, the “soluble on expression in E. coli” value is recorded as “soluble”.

Consider “MGSDKIHHHHHHMPGPYNEMDVAISYIHNHLYEPLSLSHIASYVGYSSYHFSRLFKEKTGLSPLYYVSSLRLQKAKELLLNTNLTVRDIGLEIGQQSLGTFTTRFTKCVGMSPSHFRESMNQVNHSLHSLQMLSDWRTSLQSIHPFSTVTGTIDSEAPLEGFILIGLFSKPIPEGLPLYGNLLSSTGAFSFTGVTPGIYYLMATSISWSMQAKDILLPYTTLRGRIKEPIIVTSSPSILEYSLTLHTPRLDDPPILISLPLLMKNFLKARIAT”, for which the “soluble on expression in E. coli” value is listed as “not soluble”.

(Values after the DeepSol protein solubility set.)
